From patent US20190263932A1 come the findings set out here.

For this assay, the target named is human TrkA receptor expressed in transfected 3T3 fibroblast cells (human), P04629. The experiment in a line: cell-based or functional assay.
Sequence of human TrkA receptor expressed in transfected 3T3 fibroblast cells (human), P04629 (P04629 33-796): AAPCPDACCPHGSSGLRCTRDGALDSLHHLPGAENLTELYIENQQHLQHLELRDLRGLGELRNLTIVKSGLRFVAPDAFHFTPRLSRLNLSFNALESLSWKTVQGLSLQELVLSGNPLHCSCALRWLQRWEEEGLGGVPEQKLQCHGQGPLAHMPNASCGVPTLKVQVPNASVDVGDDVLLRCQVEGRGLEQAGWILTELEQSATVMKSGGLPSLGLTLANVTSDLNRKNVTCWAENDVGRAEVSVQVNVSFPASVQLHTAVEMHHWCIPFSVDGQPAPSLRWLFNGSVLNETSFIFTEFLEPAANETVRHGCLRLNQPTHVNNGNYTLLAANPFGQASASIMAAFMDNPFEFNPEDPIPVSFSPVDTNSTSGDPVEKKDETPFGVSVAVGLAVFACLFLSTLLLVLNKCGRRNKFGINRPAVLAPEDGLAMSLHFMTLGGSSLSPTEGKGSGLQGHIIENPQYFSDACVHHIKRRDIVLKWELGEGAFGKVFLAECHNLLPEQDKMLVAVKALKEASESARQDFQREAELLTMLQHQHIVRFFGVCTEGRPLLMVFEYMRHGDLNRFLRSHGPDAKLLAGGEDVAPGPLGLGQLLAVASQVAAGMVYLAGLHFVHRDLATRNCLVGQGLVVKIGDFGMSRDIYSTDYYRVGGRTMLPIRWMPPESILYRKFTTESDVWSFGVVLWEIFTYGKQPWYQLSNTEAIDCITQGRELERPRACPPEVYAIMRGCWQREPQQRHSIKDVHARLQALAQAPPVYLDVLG

B1: mAb D (antibody, human IgG1, kappa)
heavy: EVQLVESGGGLVKPGGSLRLSCAASGFTFSGVSINWVRQAPGKGLEWVSSETTSSGTIYYADSVKGRFTISRDNAKNSLYLQMNSLRAEDTAVYYCARSYYYGMDVWGQGTTVTVSSASTKGPSVFPLAPSSKSTSGGTAALGCLVKDYFPEPVTVSWNSGALTSGVHTFPAVLQSSGLYSLSSVVTVPSSSLGTQTYICNVNHKPSNTKVDKRVEPKSCDKTHTCPPCPAPEAEGAPSVFLFPPKPKDTLMISRTPEVTCVVVDVSHEDPEVKFNWYVDGVEVHNAKTKPREEQYNSTYRVVSVLTVLHQDWLNGKEYKCKVSNKALPSSIEKTISKAKGQPREPQVYTLPPSREEMTKNQVSLTCLVKGFYPSDIAVEWESNGQPENNYKTTPPVLDSDGSFFLYSKLTVDKSRWQQGNVFSCSVMHEALHNHYTQKSLSLSPGK
light: DIVMTQTPLSSPVTLGQPASISCRSSQSLVHRAGNTYLSWLQQRPGQPPRLLIYKISNRFSGVPDRFSGSGAGTDFTLKISRVEAEDVGVYYCMQARQFPLTFGGGTKVEIKRTVAAPSVFIFPPSDEQLKSGTASVVCLLNNFYPREAKVQWKVDNALQSGNSQESVTEQDSKDSTYSLSSTLTLSKADYEKHKVYACEVTHQGLSSPVTKSFNRGEC
Turning to B1, the % Max Inhibition, pTrkA turned out to be 66%; the % Max stimulation, pTrkA was 27%; the EC50 (nM), pTrkA is 0.28 nM; the IC50 (nM), pTrkA was 0.12 nM. Also, the pTrkA counts per second, 0.1 pM mAb, no NGF (counts per second) turned out to be 277000; the pTrkA counts per second, 1 pM mAb, no NGF (counts per second) turned out to be 398000; the pTrkA counts per second, 10 pM mAb, no NGF (counts per second) was 335000; the pTrkA counts per second, 100 pM mAb, no NGF (counts per second) was determined as 486000. The same molecule came in with a pTrkA counts per second, 1 nM mAb, no NGF (counts per second) of 935000; a pTrkA counts per second, 10 nM mAb, no NGF (counts per second) of 1.16e+06; a pTrkA counts per second, 100 nM mAb, no NGF (counts per second) of 994000; a pTrkA counts per second, 1 uM mAb, no NGF (counts per second) of 1.02e+06. This molecule also registered a pTrkA counts per second, NGF +0.1 pM mAb (counts per second) of 2.56e+06; a pTrkA counts per second, NGF +1 pM mAb (counts per second) of 2.79e+06; a pTrkA counts per second, NGF +10 pM mAb (counts per second) of 2.68e+06; a pTrkA counts per second, NGF +100 pM mAb (counts per second) of 2.01e+06. For the same molecule, the pTrkA counts per second, NGF +1 nM mAb (counts per second) is 1.35e+06; the pTrkA counts per second, NGF +10 nM mAb (counts per second) came to 1.2e+06; the pTrkA counts per second, NGF +100 nM mAb (counts per second) worked out at 1.44e+06; the pTrkA counts per second, NGF +1 uM mAb (counts per second) came to 971000.

B2: mAb E (antibody, human IgG1, kappa)
heavy: EVQLVESGGGLVKPGGSLRLSCAASGFTFSGVSINWVRQAPGKGLEWVSSETTSSGTIYYADSVKGRFTISRDNAKNSLYLQMNSLRAEDTAVYYCARSYYYGMDVWGQGTTVTVSSASTKGPSVFPLAPSSKSTSGGTAALGCLVKDYFPEPVTVSWNSGALTSGVHTFPAVLQSSGLYSLSSVVTVPSSSLGTQTYICNVNHKPSNTKVDKRVEPKSCDKTHTCPPCPAPEAEGAPSVFLFPPKPKDTLMISRTPEVTCVVVDVSHEDPEVKFNWYVDGVEVHNAKTKPREEQYNSTYRVVSVLTVLHQDWLNGKEYKCKVSNKALPSSIEKTISKAKGQPREPQVYTLPPSREEMTKNQVSLTCLVKGFYPSDIAVEWESNGQPENNYKTTPPVLDSDGSFFLYSKLTVDKSRWQQGNVFSCSVMHEALHNHYTQKSLSLSPGK
light: DIVMTQTPLSSPVTLGQPASISCRSSQSLVHRQGNTYLSWLQQRPGQPPRLLIYKISNRFSGVPDRFSGSGAGTDFTLKISRVEAEDVGVYYCMQARQFPLTFGGGTKVEIKRTVAAPSVFIFPPSDEQLKSGTASVVCLLNNFYPREAKVQWKVDNALQSGNSQESVTEQDSKDSTYSLSSTLTLSKADYEKHKVYACEVTHQGLSSPVTKSFNRGEC
B2 returned a % Inh., Human pTrkA of 56%; a % Max Inhibition, pTrkA of 57%; a % Max stimulation, pTrkA of 31%; an EC50 (nM), pTrkA of 0.29 nM. Besides, the IC50 (nM), pTrkA worked out at 0.48 nM; the pTrkA counts per second, 0.1 pM mAb, no NGF (counts per second) turned out to be 178000; the pTrkA counts per second, 1 pM mAb, no NGF (counts per second) was determined as 181000; the pTrkA counts per second, 10 pM mAb, no NGF (counts per second) is 194000. This molecule also displayed a pTrkA counts per second, 100 pM mAb, no NGF (counts per second) of 264000; a pTrkA counts per second, 1 nM mAb, no NGF (counts per second) of 487000; a pTrkA counts per second, 10 nM mAb, no NGF (counts per second) of 600000; a pTrkA counts per second, 100 nM mAb, no NGF (counts per second) of 605000. This molecule also had a pTrkA counts per second, 1 uM mAb, no NGF (counts per second) of 483000; a pTrkA counts per second, NGF +0.1 pM mAb (counts per second) of 1.85e+06; a pTrkA counts per second, NGF +1 pM mAb (counts per second) of 2.19e+06; a pTrkA counts per second, NGF +10 pM mAb (counts per second) of 2.76e+06. Also, the pTrkA counts per second, NGF +100 pM mAb (counts per second) was found to be 2.78e+06; the pTrkA counts per second, NGF +1 nM mAb (counts per second) came to 838000; the pTrkA counts per second, NGF +10 nM mAb (counts per second) came out at 800000; the pTrkA counts per second, NGF +100 nM mAb (counts per second) was determined as 739000. The pTrkA counts per second, NGF +1 uM mAb (counts per second) was determined as 630000.
